Measured values published in patent publication EP4424703A1.

Columns and labels:
[1] = target: human transferrin receptor-1 on human TfR-positive cells (SK-OV-3, hCMEC/D3) (human) (UniProt P02786); assay: flow cytometry on SK-OV-3 cells, 600 nM Ztaq-ABD (negative control) co-incubated with 25 µg/mL Tf-488
[2] = target: human transferrin receptor-1 on human TfR-positive cells (SK-OV-3, hCMEC/D3) (human) (UniProt P02786); assay: flow cytometry on SK-OV-3 cells, 200 nM Ztaq-ABD (negative control) co-incubated with 25 µg/mL Tf-488

UniProt P02786, sequence (P02786 whole entry): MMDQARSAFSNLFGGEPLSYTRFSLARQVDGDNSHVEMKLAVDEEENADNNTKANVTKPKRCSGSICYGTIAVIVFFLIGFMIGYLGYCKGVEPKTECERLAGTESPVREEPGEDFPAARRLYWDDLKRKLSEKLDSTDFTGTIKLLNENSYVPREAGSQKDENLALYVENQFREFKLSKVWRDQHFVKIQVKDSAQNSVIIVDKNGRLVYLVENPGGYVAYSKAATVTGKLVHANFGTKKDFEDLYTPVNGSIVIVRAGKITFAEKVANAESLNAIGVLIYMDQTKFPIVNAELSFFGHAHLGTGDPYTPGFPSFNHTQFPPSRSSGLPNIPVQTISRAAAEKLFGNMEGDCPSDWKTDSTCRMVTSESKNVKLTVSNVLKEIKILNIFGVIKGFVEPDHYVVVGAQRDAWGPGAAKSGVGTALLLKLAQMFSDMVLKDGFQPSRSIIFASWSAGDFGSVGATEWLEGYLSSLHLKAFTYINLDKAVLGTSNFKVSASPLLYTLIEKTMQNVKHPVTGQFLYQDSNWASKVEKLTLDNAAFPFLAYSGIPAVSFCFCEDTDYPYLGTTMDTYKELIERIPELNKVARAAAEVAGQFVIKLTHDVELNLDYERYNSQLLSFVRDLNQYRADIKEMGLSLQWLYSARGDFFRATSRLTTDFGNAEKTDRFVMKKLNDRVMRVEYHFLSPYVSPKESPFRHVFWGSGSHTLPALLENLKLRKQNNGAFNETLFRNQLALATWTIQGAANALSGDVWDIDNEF

Substance | MFI 640/660 nm [1] [MFI] | MFI 640/660 nm [2] [MFI]
Ztaq-ABD (designed binder) | 3.69 | –
Ztaq-ABD | – | 1.62
